Assay: Enzyme assay in vitro: formation of vanillin from isoeugenol by purified isoeugenol monooxygenase (HPLC)
Assay type: biochemical
Conditions: 10 mM isoeugenol, pH 7.0, 30° C., 10 min
Description: The two purified isoeugenol monooxygenases were assayed by measuring the formation of vanillin in an enzymatic measuring mixture with isoeugenol as the substrate. The reaction mixture contained 10 mM isoeugenol, 100 mM potassium phosphate buffer (pH 7.0), 10% (v/v) ethanol and an appropriate amount of enzyme, in a total volume of 1 ml. The reaction was started, by adding isoeugenol as ethanol solution, carried out at 30° C. for 10 min with reciprocal shaking (160 strokes min^−1) and stopped with 1 ml of methanol. After centrifugation at 21,500, the supernatant was analyzed by HPLC for the determination of isoeugenol, vanillin, and vanillyl alcohol. CfIEM enzyme treated in boiling water for 5 minutes was used as the negative control.
As expected, no vanillin was produced with the negative control (lower panel).

B1: CfIEM: isoeugenol monooxygenase from the fungus Colletotrichum fioriniae PJ7, 539 amino acids (SEQ ID NO: 2) (protein, listed as Colletotrichum fioriniae)
chain: MAPGRTDDEAAEVATSSKTHAISNYGLTTKWPEAYDLAGSNLPCRLEGEIGDLVVLGEIPKEIDGTFYRVMTDPFVPPHPNNVPLDGDGNISAFRIKDGRVDMKMRYVETERYKLERKANKALFGLYRNPFTHHPCVRAAVDSTANTNVVLWADHFLALKEGGLPYSVDPQTLETIKYDPFGQIKAKTFTAHPKIDPYTNELVVFGYEARGLASLDIVIYALDSNGVKHDEQWIKSPWCAPIHDCAITPNWIILALWPFEASVDRMKKGGHHWAWDYDLPATFIVAPRRSSTKLPPGWQPGESRVYSWKNCMLIHTGGAWESEDGQTLFMETTRVHDNGFPFFPTNEGVYPAPDPKSDYVRWTFDLSQPTNSKVPDPEIILDMPAEFPRLDERFLSKSYNYVWINVYIHEDQNGDGHTIVEGLNGLAMHNSKTKETKCFNAGAESFCQEPIFIPRSDDAPEGDGWVMTMVERRGANRNEIVVLDTKDFEKPIAVIQLPFHVKAQVHGNWVDQRRLKAWQKLARDAVPEPISGQGALEPL
- activity toward isoeugenol: high activity
- conversion of added isoeugenol to vanillin (HPLC): Almost all isoeugenol added to the reaction mixture was converted to vanillin
